The target of the assay is T1, CATCH(-) peptide.
T1 peptide: Ac-EQEFEFEFEQE-NH2
Briefly: gelation on mixing.

As for Ac-QQKFKFKFKQQ-NH2 [CATCH(+) peptide], the binding result is listed as “binds”.

The values above are taken from article doi:10.1101/2024.09.06.611628 (bioRxiv, 2024).
